These results are taken from patent US20080181886A1, “Polypeptides That Bind Baff And/Or April” (Genentech, Inc., priority 2004, published 2008).

The target of assay [1] is T1, BAFF (Homo sapiens, UniProt Q9Y275).
T1 construct: made in house
The assay can be described thus: NNS phage library of TACI CRD2 (positions 78, 79, 84, 92), BAFF selection. It is filed as binding. The conditions noted are these: amino acid at position F78; after 3 rounds of sorting; large F′ = favorable. The method, then: (§1) NNS library construction and sorting.
(§2) This new phage library was subjected to sorting against either BAFF, APRIL or the display target antibody. After 3 rounds of sorting, approximately 48 clones were picked from each selection and the DNA sequences of the phage clones were determined. […] The normalized F′ value corrects for display bias and is calculated as the percent occurrence to percent degeneracy ratio for ligand selection divided by the percent occurrence to percent degeneracy ratio for display efficiency. Percent occurrence is calculated by dividing the number of times a particular amino acid appeared at a particular position by the total number of amino acids sequenced at that position followed by multiplying by 100. Percent degeneracy is calculated by dividing the degeneracy in code for a particular amino acid divided by the total degeneracy possible at that position followed by multiplying by 100 (e.g., if only A, G and I were selected, total degeneracy possible would be 5).

For assay [2], the target named is T2, APRIL (Mus musculus, UniProt Q9D777).
T2 construct: made in house
T2 sequence (Q9D777 105-241): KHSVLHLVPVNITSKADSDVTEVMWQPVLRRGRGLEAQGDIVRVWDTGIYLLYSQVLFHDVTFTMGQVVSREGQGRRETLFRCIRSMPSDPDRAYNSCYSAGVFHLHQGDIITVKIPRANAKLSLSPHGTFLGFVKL
The assay can be described thus: NNS phage library of TACI CRD2 (positions 78, 79, 84, 92), APRIL selection. It is filed as binding, murine. The conditions noted are these: amino acid at position F78; after 3 rounds of sorting; large F′ = favorable. The method, then: as §1, §2

The target in assay [3] is T2, APRIL. The assay can be described thus: Competitive surface plasmon resonance, APRIL binding to immobilized BCMA-Fc. Further details: species or system murine. The conditions noted are these: competition with immobilized BCMA-Fc. From the text: Surface plasmon resonance (SPR) measurements on a BIAcore 3000 instrument (Pharmacia Biosensor) were used to measure binding affinities of receptors to immobilized APRIL and BAFF by competition binding. […] In these experiments, receptors in solution competed for binding of ligand in solution at room temperature with immobilized BCMA-Fc. BCMA-Fc was coupled to flow cell 2 of a CM4 sensor chip, using the amine coupling protocol supplied by the manufacturer, at a high density (4500 resonance units) so that the initial rate of binding was linearly dependent on the concentration of free ligand. In all experiments flow cell 1 was ethanolamine-blocked and used as the reference cell. Washing with 10 mM HCl regenerated flow cells between sample injections. In order to determine the ligand concentration necessary to obtain the optimal for competition experiments, a preliminary binding study was performed for each ligand where two-fold dilutions of the ligand ranging from 400 nM to 6.25 nM were injected over the BCMA-Fc surface. […] The IC50 values were calculated using a four-parameter curve fit (y=((m1−m4)/(1+(m0/m3)̂m2))+m4) of the initial binding rates for the receptor/control (Vi/Vo) as a function of receptor concentration.
On the technique in general: In SPR one partner is held on a chip, and binding of the other changes the refractive index at the surface.

The target in assay [4] is T1, BAFF. The assay can be described thus: Competitive surface plasmon resonance, BAFF binding to immobilized BCMA-Fc. The conditions noted are these: competition with immobilized BCMA-Fc. The source says:
Surface plasmon resonance (SPR) measurements on a BIAcore 3000 instrument (Pharmacia Biosensor) were used to measure binding affinities of receptors to immobilized APRIL and BAFF by competition binding. […] In these experiments, receptors in solution competed for binding of ligand in solution at room temperature with immobilized BCMA-Fc. BCMA-Fc was coupled to flow cell 2 of a CM4 sensor chip, using the amine coupling protocol supplied by the manufacturer, at a high density (4500 resonance units) so that the initial rate of binding was linearly dependent on the concentration of free ligand. In all experiments flow cell 1 was ethanolamine-blocked and used as the reference cell. Washing with 10 mM HCl regenerated flow cells between sample injections. In order to determine the ligand concentration necessary to obtain the optimal for competition experiments, a preliminary binding study was performed for each ligand where two-fold dilutions of the ligand ranging from 400 nM to 6.25 nM were injected over the BCMA-Fc surface. The concentration of ligand that provided a slope of about 1 for the initial on-rate of the observed sensorgrams was selected as the fixed concentration to be used in the competition experiments. In all experiments where BAFE was the ligand, the buffer used was composed of 10 mM HEPES, pH 7.2, 150 mM NaCl, and 0.005% Tween-20. In all experiments where TRX-APRIL was the ligand selected, the buffer was composed of 20 mM Tris-HCl, pH 8.0, 200 mM NaCl, and 0.005% Tween-20. […] Samples were then passed over the BCMA-Fc-coupled surface. A linear fit of the initial on-rate of the observed sensorgrams was used to calculate the binding rate (V). The IC50 values were calculated using a four-parameter curve fit (y=((m1−m4)/(1+(m0/m3)̂m2))+m4) of the initial binding rates for the receptor/control (Vi/Vo) as a function of receptor concentration.

In assay [5] the target is T2, APRIL. The assay is described as follows: Competitive ELISA, APRIL. It is filed as binding, murine. The conditions noted are these: data not shown.
In assay [6] the target is T1, BAFF. The assay is described as follows: Competitive ELISA, BAFF. It is filed as binding. The conditions noted are these: data not shown. Background: In an ELISA, binding on a coated surface is turned into a signal by an enzyme label.

T1 sequence (Q9Y275 82-285 limits assumed): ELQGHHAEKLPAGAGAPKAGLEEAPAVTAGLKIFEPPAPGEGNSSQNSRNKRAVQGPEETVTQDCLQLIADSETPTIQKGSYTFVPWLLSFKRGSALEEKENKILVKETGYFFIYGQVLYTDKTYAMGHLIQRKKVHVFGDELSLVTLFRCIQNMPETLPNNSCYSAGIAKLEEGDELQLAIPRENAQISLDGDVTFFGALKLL

With “F78F: phage-displayed TACI CRD2, wild-type F retained at position 78 (NNS library) (SLSCRKEQGKFYDHLLRDCISCASICGQHPKQCAYFCENKLR; CRD2 phage-displayed; UniProt O14836 68-109, looked up, fragment)”, in the assay with BAFF [1], the “F′ BAFF F78” value is 3. Moreover, the “F′ APRIL F78” value with APRIL [2] is 2.
With “TACI CRD1 Loop Swap: human TACI CRD1 (R32-R67) with residues NHQSQRT substituted by GQHPKQ of hTACI CRD2 (RSCPEEQYWDPLLGTCMSCKTICGQHPKQCAAFCR)”, the “affinity for APRIL, comparison in words” value with APRIL [3] is reported as “increased TACI CRD1 affinity”. Besides, in the assay with BAFF [4], the “affinity for BAFF, comparison in words” value is “increased TACI CRD1 affinity”.
In the case of “TACI_d1: first CRD of TACI (residues 32-67), expressed in E. coli (RSCPEEQYWDPLLGTCMSCKTICNHQSQRTCAAFCR)”, in the assay with APRIL [3], the “IC50 for APRIL, in words” value is listed as “in the micromolar range”. In addition, in the assay with BAFF [4], the “IC50 for BAFF, in words” value is “in the micromolar range” and the “affinity for BAFF, comparison in words” value is given as “an interaction was observed”.
For “TACI_d2: second cysteine-rich domain (CRD2, residues 68-109) of TACI, with four additional residues (GSPW) at the N-terminus (GSPWSLSCRKEQGKFYDHLLRDCISCASICGQHPKQCAYFCENKLR)”, the “binding to APRIL, in words” value with APRIL [5] is recorded as “sufficient for high-affinity binding”. Further, the “binding to BAFF, in words” value in the assay with BAFF [6] is “sufficient for high-affinity binding”.
